Data: patent US7892769B2, “Processing of EphA4 polypeptide by γ-secretase activity” (Eisai R&D Management Co., Ltd., priority 2007, dated 2011)

Assays:
[1] = tested on: primary culture of rat hippocampal neurons; assay: Spine formation analysis by overexpression of EphA4 fragments in primary culture of rat hippocampal neurons; type: cell-based; settings: fragment gene transfected on day 9 of culture, counted twelve days after gene transfer, GFP-visualized; vs HA control; FIG. 4, FIG. 5
Method: Primary culture of rat hippocampal neurons were cultured in the same manner as described in Example 2. On day 9 of culture, gene transfer experiment was performed using Lipofectamine 2000 (Invitrogen) according to the manual. In order to visualize the morphology of spines, pcDNA3.1Syn1 GFP (SEQ ID NO: 306) was co-transferred into the neurons. Twelve days after the gene transfer, the neurons were fixed with 2% paraformaldehyde, treated with 0.25% TritonX-100 and blocked with BlockAce (Snow Brand Milk). After the blocking, the neurons were treated with rabbit anti-GFP antibody (Invitrogen) and rat anti-HA antibody (Roche); and reacted with FITC-linked anti-rabbit IgG antibody (Jackson), Cy3-linked anti-mouse IgG antibody (Jackson) and Cy5-linked anti-rat IgG antibody (Jackson). […] The spines (protuberances formed on dendrites) which were visualized by the expression of GFP were counted. Image data were quantitatively determined with image analysis software Metamorph (Molecular Devices). pcDNA3.1Syn1 GFP may be obtained by the procedures described below.
In the above-mentioned Example 4, the gene with an HA tag added to its N-terminus (SEQ ID NO:197), which is one of the two cleaved fragments, was transfected instead of the HA-EphA4 intracellular fragment and spine formation was analyzed in the same way based on the cleavage site specified in Example 3.

[2] = tested on: NIH3T3 cells; assay: Lamellipodia formation (Rac1 activation indicator) after gene transfer into NIH3T3 cells; type: cell-based; settings: for lamellipodia formation promotive capacity: cotransfected with Rac1N17 (dominant negative form of Rac1); for lamellipodia formation promotive capacity / lamellipodia formation: FIG. 6, FIG. 7; for lamellipodia formation: fragment gene transfected alone, vs HA control; for ratios of lamellipodia forming cells: EICD deletion mutants transfected separately, compared with HA, FIG. 8
Method: In order to examine whether or not EICD produced by γ-secretase is involved in the signaling mechanism of Rho family molecules, and activation of which molecule EICD is involved in, gene transfer into NIH3T3 cells was performed, followed by analysis of the effect of EICD in the rearrangement of actin cytoskeletons in which Rho family molecules are involved. In the rearrangement, the following facts are known: when RhoA is activated, actin fibers called stress fibers are formed at the bottom of cells; when Cdc42 is activated, protrusions called filopodia are formed; when Rac1 is activated, structures called lamellipodia are formed. The effect of EICD was examined with these formations as indicators.
NIH3T3 cells were cultured in 10% CBS (flow)/Antibiotic-Antimycotic (Invitrogen)/DMEM (Invitrogen) under 5% CO2 at 37° C. Genes encoding HA-EICD (SEQ ID NO: 93) or EICD+Rac1N17 (SEQ ID NO: 200) were transfected into the cells with Lipofectamine 2000 (Invitrogen). Eighteen hours later, the cells were replated in wells provided with poly-L-lysin (SIGMA)-coated 13 mm cover glass. Eighteen hours thereafter, the cells were fixed in 2% paraformaldehyde (Wako), treated with 0.25% TritonX-100 and blocked with BlockAce (Snow Brand Milk Products). After the blocking, the cells were treated with rat anti-HA antibody (Roche), followed by reaction with FITC-linked anti-rat IgG antibody (Jackson) and Alexa Fluor phalloidin 546 (Molecular probes).
In the above-mentioned Example 6, the EphA4 fragment used in Example 5 (SEQ ID NO: 197) was transfected instead of the HA-EphA4 intracellular fragment and lamellipodia formation was analyzed in the same way.
Genes encoding HA, HA-EICD (SEQ ID NO: 93) and various EICD mutants (HA-EICD Δ1 to HA-EICD Δ4) prepared in (1) above were transfected to NIH3T3 cells separately in the same manner as described in Examples 6 and 7. Then, ratios of lamellipodia forming cells were examined. In the various EICD mutants described below, capital letters appearing at the 5′ end of the nucleotide sequences represent a nucleotide sequence encoding HA tag. Small letters appearing at the 3′ end represent a nucleotide sequence encoding EphA4 intracellular fragment.

B1: HA-EICD: rat EphA4 intracellular domain (amino acid 571 to stop) with N-terminal HA tag, SEQ ID NO: 94, expressed by transfection (protein, listed as Rattus norvegicus)
chain: MDYPYDVPDYATRVERRRSKYSQAKQEADEEKHLNQGVRTYVDPFTYEDPNQAVREFAKEIDASCIKIEKVIGVGEFGEVCSGRLKVPGKREICVAIKTLKAGYTDKQRRDFLSEASIMGQFDHPNIIHLEGVVTKCKPVMIITEYMENGSLDAFLRKNDGRFTVIQLVGMLRGIGSGMKYLSDMSYVHRDLAARNILVNSNLVCKVSDFGMSRVLEDDPEAAYTTRGGKIPIRWTAPEAIAYRKFTSASDVWSYGIVMWEVMSYGERPYWDMSNQDVIKAIEEGYRLPPPMDCPIALHQLMLDCWQKERSDRPKFGQIVNMLDKLIRNPNSLKRTGPESSRPNTALLDPSSPEFSAVVSVGDWLQAIKMDRYKDNFTAAGYTTLEAVVHMSQDDLARIGITAITHQNKILSSVQAMRTQMQQMHGRMVPV
modifications: N-terminal HA tag
[1]
  number of spines: increases the number of spines
[2]
  lamellipodia formation promotive capacity: disappeared completely
  lamellipodia formation: lamellipodia formation is promoted

B2: EICD Δ3: HA-tagged EphA4 intracellular deletion mutant, 661 amino acid-Stop, SEQ ID NO: 172 (protein, listed as Rattus norvegicus)
chain: MDYPYDVPDYATRVDDKQRRDFLSEASIMGQFDHPNIIHLEGVVTKCKPVMIITEYMENGSLDAFLRKNDGRFTVIQLVGMLRGIGSGMKYLSDMSYVHRDLAARNILVNSNLVCKVSDFGMSRVLEDDPEAAYTTRGGKIPIRWTAPEAIAYRKFTSASDVWSYGIVMWEVMSYGERPYWDMSNQDVIKAIEEGYRLPPPMDCPIALHQLMLDCWQKERSDRPKFGQIVNMLDKLIRNPNSLKRTGPESSRPNTALLDPSSPEFSAVVSVGDWLQAIKMDRYKDNFTAAGYTTLEAVVHMSQDDLARIGITAITHQNKILSSVQAMRTQMQQMHGRMVPV
modifications: HA tag
[2]
  ratios of lamellipodia forming cells: almost the same level as that of HA

B3: EICD Δ1: HA-tagged EphA4 intracellular deletion mutant, 587 amino acid-Stop, SEQ ID NO: 168 (protein, listed as Rattus norvegicus)
chain: MDYPYDVPDYATRVDKHLNQGVRTYVDPFTYEDPNQAVREFAKEIDASCIKIEKVIGVGEFGEVCSGRLKVPGKREICVAIKTLKAGYTDKQRRDFLSEASIMGQFDHPNIIHLEGVVTKCKPVMIITEYMENGSLDAFLRKNDGRFTVIQLVGMLRGIGSGMKYLSDMSYVHRDLAARNILVNSNLVCKVSDFGMSRVLEDDPEAAYTTRGGKIPIRWTAPEAIAYRKFTSASDVWSYGIVMWEVMSYGERPYWDMSNQDVIKAIEEGYRLPPPMDCPIALHQLMLDCWQKERSDRPKFGQIVNMLDKLIRNPNSLKRTGPESSRPNTALLDPSSPEFSAVVSVGDWLQAIKMDRYKDNFTAAGYTTLEAVVHMSQDDLARIGITAITHQNKILSSVQAMRTQMQQMHGRMVPV
modifications: HA tag
[2]
  ratios of lamellipodia forming cells: lamellipodia forming cells are increased

B4: EICD Δ2: HA-tagged EphA4 intracellular deletion mutant, 622 amino acid-Stop, SEQ ID NO: 170 (protein, listed as Rattus norvegicus)
chain: MDYPYDVPDYATRVDKIEKVIGVGEFGEVCSGRLKVPGKREICVAIKTLKAGYTDKQRRDFLSEASIMGQFDHPNIIHLEGVVTKCKPVMIITEYMENGSLDAFLRKNDGRFTVIQLVGMLRGIGSGMKYLSDMSYVHRDLAARNILVNSNLVCKVSDFGMSRVLEDDPEAAYTTRGGKIPIRWTAPEAIAYRKFTSASDVWSYGIVMWEVMSYGERPYWDMSNQDVIKAIEEGYRLPPPMDCPIALHQLMLDCWQKERSDRPKFGQIVNMLDKLIRNPNSLKRTGPESSRPNTALLDPSSPEFSAVVSVGDWLQAIKMDRYKDNFTAAGYTTLEAVVHMSQDDLARIGITAITHQNKILSSVQAMRTQMQQMHGRMVPV
modifications: HA tag
[2]
  ratios of lamellipodia forming cells: almost the same level as that of HA

B5: EICD Δ4: HA-tagged EphA4 intracellular deletion mutant, 701 amino acid-Stop, SEQ ID NO: 174 (protein, listed as Rattus norvegicus)
chain: MDYPYDVPDYATRVDYMENGSLDAFLRKNDGRFTVIQLVGMLRGIGSGMKYLSDMSYVHRDLAARNILVNSNLVCKVSDFGMSRVLEDDPEAAYTTRGGKIPIRWTAPEAIAYRKFTSASDVWSYGIVMWEVMSYGERPYWDMSNQDVIKAIEEGYRLPPPMDCPIALHQLMLDCWQKERSDRPKFGQIVNMLDKLIRNPNSLKRTGPESSRPNTALLDPSSPEFSAVVSVGDWLQAIKMDRYKDNFTAAGYTTLEAVVHMSQDDLARIGITAITHQNKILSSVQAMRTQMQQMHGRMVPV
modifications: HA tag
[2]
  ratios of lamellipodia forming cells: almost the same level as that of HA

B6: HA-γ-fragment: γ-secretase-cleaved rat EphA4 intracellular fragment with N-terminal HA tag, SEQ ID NO: 198, expressed by transfection (protein)
chain: MSALLILALVGAAVAGSEFTRVEVTTNTVPSRIIGDGANSTVLLVSVSGSVVLVVILIAAFVISRRRSKYSQAKQEADEEKHLNQGVRTYVDPFTYEDPNQAVREFAKEIDASCIKIEKVIGVGEFGEVCSGRLKVPGKREICVAIKTLKAGYTDKQRRDFLSEASIMGQFDHPNIIHLEGVVTKCKPVMIITEYMENGSLDAFLRKNDGRFTVIQLVGMLRGIGSGMKYLSDMSYVHRDLAARNILVNSNLVCKVSDFGMSRVLEDDPEAAYTTRGGKIPIRWTAPEAIAYRKFTSASDVWSYGIVMWEVMSYGERPYWDMSNQDVIKAIEEGYRLPPPMDCPIALHQLMLDCWQKERSDRPKFGQIVNMLDKLIRNPNSLKRTGPESSRPNTALLDPSSPEFSAVVSVGDWLQAIKMDRYKDNFTAAGYTTLEAVVHMSQDDLARIGITAITHQNKILSSVQAMRTQMQQMHGRMVPVAAAMDYPYDVPDYA
modifications: N-terminal HA tag; synthetic DNA
[1]
  number of spines: increases the number of spines
[2]
  lamellipodia formation promotive capacity: disappeared completely
  lamellipodia formation: promotes lamellipodia formation
